In US20100196361A1, “Method of inhibition of vascular development using an antibody” (DYAX CORP., priority 2003, published 2010):
Where a chain is given by its changes, count along the chain named.

B1: E3: human anti-Tie1 antibody from phage Fab library, reformatted as IgG; HC variable SEQ ID NO:114, LC variable SEQ ID NO:116 (antibody, V domains shown)
VH: EVQLLESGGGLVQPGGSLRLSCAASGFTFSMYGMVWVRQAPGKGLEWVSVISPSGGNTGYADSVKGRFTISRDNSKNTLYLQVNSLRAEDTAVYYCARAPRGYSYGYYYWGQGTLVTVSSASTKGPSVFPLAPSSKSTSGG
VL: DIQMTQSPLSLSASVGDRVTITCRASQGIGHYLAWYQQKPGKVPKLLIYTASTLQSGVPSRFSGSGSGTDFTLTINSLQPEDVATYYCQQFNSYPHTFGQGTRLDIK
modifications: IgG constant regions; Synthetically generated peptide
B2: DX-2210: E3 antibody in which the light chain has been germlined (antibody, V domains shown)
VH: B1 VH
VL: B1 VL with L9S, N76S, D105E

What was measured:
Tie1 [1] = test: Immunohistochemistry of mouse xenograft tumor sections (SW480); type: binding; conditions: biotinylated antibody 10 μg/ml, formalin-fixed paraffin sections
Description: We determined if antibody E3 binds to mouse endothelial cells in mouse xenographs. Immunohistochemistry was performed with biotinylated E3 IgG1 (a,z allotype) antibody and control antibodies anti-CD31 (endothelial cell specific marker) and anti-PCNA (proliferating cell nuclear antigen). Formalin-fixed tumor tissues from a mouse-xenograph containing SW480 cells (ATCC) were tested for the binding pattern of the human anti-Tie1 antibody E3. 5 μm sections of paraffin embedded tissues were deparaffinized, rehydrated and pretreated with warm the citrate buffer (0.01 M sodium citrate, pH6 at 95° C.) for 45 min. The slides were cooled down in fresh citrate buffer for 20 min and rinsed with distilled water. The slides were hydrogen peroxide treated, (0.3% H2O2 in PBS), and preincubated with PBS, 5% FCS, 5% heat inactivated human serum (HS) for 1 hour. Between antibody incubations slides were washed 3 times 5 minutes in PBS. Biotinylated antibodies E3 and A2-SV were diluted to a concentration of 10 μg/ml in PBS, 10% HS and incubated for 1 hour at RT. Slides were then incubated with an avidin-HRP (Dako) for 30 minutes at room temperature. Staining was detected by AEC (Vector Laboratories, Burlingame) and H2O2. The peroxidase reaction was stopped with water and slides were counter-stained with haematoxylin. The tissues were evaluated for their binding reactivity.

Tie1 [2] = biological target: Tie1 (Homo sapiens, UniProt P35590); test: Tie1 phosphorylation assay; type: cell-based; parameters: an expression vector containing a V5-tagged full length Tie1 cDNA; expressed in transfected cells; host or cells: COS1
Description: Tie1 phosphorylation assay. COS1 cells were transfected with pcDNA3-Tie1-V5. After 24 h of transfection, the cells were serum starved for 8 h and then treated with E3 IgG. For the Tie1 phosphorylation assay, HDMVECs were cultured on 10 cm dishes to near confluence, starved (8-16 h) in serum free medium and stimulated as indicated. After the stimulations, the cells were lysed in lysis buffer (RIPA-DOC: 50 mM Tris-HCl pH 8.0, 150 mM NaCl, 1% Triton-X-100, 0.1% SDS, 0.5% DOC, 10 mM EDTA, supplemented with aprotinin, leupeptin, PMSF and sodium vanadate). Clarified lysates from transfected COS 1 cells or HDMVECs were immunoprecipitated with anti-V5 or anti-Tie1 B9, respectively. Proteins were separated by SDS-PAGE, transferred to nitrocellulose and immunoblotted using the anti-phosphotyrosine and anti-Tie1 (R&D systems) antibodies.
To test if the E3 IgG binding to the extracellular region of Tie1 induces autophosphorylation of Tie1, the Tie1 receptor phosphorylation level in response to E3 IgG treatment was studied in transiently transfected COS 1 cells and human primary endothelial cells. COS 1 cells were transfected with an expression vector containing a V5-tagged full length Tie1 cDNA, and, after serum starvation, the cells were treated with E3 IgG (200 ng/ml). Cell lysates were extracted at several time points and Tie1 was immunoprecipitated with anti-V5 followed by western blotting using anti-phosphotyrosine and anti-Tie1 antibodies. […] To determine if E3 IgG induces Tie1 phosphorylation in primary endothelial cells, HDMVEC cells were serum starved and stimulated with several concentrations of E3 for 60 min. […] Also higher concentrations of E3 (500-1000 ng/ml) induced Tie1 phosphorylation but the response was more rapid and was most prominent after 5 min of stimulation.
To study the kinetics of E3 IgG induced Tie1 activation, cells were stimulated with E3 IgG (200 ng/ml) and receptor phosphorylation was studied at various time points. Tie1 phosphorylation was highest 15-30 min after E3 IgG treatment but phosphorylation persisted for up to 1 h.

HUVEC = test: Flow cytometry on HUVEC control cells; type: binding, human
Description: Specific binding of the Tie1 antibodies and of control Mabs to mouse endothelial cells was measured by flow cytometry analysis (FACSscan, Becton Dickinson, Oxnard, Epics, Coulter). Mouse endothelial cell lines MS1, Le-2, Bend3, SVEC (ATCC, Rockville) and Tie1 transfected Le-2 cells were stained. Cell staining was modified from existing protocols. About 200,000 cells were used in each experiment: after trypsinization, cells were washed one time in PBS and resuspended PBS, 10% heat inactivated human serum (incubation buffer). To test specificity, antibodies were incubated at different dilutions for 1 h at room temperature. Cells were spun down by centrifugation for 3 min at 611 g. Between incubations cells were washed twice with PBS. […] After the final incubation step bound antibodies were detected by means of flow cytometry on a FACSCan and Epics Altra (Becton Dickinson, Oxnard, Coulter) and results analyzed.
Intracellular Tie1 was measured as described above, except for the addition of Saponin to the incubation buffer to a final concentration of 0.1% during incubations. […] The binding pattern in mouse cell lines detected by flow cytometry is different from the binding pattern in HUVEC in that in mouse cells there is a greater cell surface staining than that compared to primary human endothelial cell lines. […]

Tie1 (Homo sapiens, UniProt P35590), sequence (P35590 22-1138): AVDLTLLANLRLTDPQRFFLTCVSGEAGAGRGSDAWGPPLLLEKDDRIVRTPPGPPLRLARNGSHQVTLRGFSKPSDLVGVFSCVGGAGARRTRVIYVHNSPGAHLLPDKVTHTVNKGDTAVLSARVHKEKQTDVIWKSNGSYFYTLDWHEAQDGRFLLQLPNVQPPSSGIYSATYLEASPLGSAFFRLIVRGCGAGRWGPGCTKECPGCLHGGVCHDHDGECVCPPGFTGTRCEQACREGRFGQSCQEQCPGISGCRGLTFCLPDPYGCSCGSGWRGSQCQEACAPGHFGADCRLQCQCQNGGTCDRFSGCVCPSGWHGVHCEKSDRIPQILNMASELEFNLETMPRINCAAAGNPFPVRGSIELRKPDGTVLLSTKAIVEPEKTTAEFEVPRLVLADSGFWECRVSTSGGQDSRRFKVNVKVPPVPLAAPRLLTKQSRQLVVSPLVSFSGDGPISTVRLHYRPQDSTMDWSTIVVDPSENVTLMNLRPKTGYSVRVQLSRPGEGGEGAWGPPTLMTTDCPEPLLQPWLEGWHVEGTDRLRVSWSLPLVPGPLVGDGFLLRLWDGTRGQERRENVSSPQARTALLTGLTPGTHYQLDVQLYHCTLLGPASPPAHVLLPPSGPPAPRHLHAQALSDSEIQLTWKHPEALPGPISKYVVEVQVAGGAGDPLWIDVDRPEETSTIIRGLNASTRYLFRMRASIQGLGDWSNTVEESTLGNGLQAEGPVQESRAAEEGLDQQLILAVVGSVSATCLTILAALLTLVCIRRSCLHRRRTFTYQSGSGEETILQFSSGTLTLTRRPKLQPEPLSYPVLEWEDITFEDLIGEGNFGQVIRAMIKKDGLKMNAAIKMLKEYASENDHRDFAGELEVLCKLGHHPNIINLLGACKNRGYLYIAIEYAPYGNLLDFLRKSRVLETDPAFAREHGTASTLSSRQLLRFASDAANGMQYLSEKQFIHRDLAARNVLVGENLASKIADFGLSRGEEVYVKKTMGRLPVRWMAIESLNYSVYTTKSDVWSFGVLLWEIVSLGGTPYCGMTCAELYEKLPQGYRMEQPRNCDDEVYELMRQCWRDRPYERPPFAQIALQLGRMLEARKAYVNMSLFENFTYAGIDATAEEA

Row | Molecule | staining pattern in SW480 mouse xenograft sections (Tie1 [1]) | persistence of Tie1 phosphorylation (Tie1 [2]; 200 ng/ml) | time of highest Tie1 phosphorylation (Tie1 [2]; 200 ng/ml) [min] | concentration giving receptor phosphorylation (Tie1 [2]; HDMVEC, serum starved, 60 min stimulation) [ng/mL] | time of most prominent Tie1 phosphorylation (Tie1 [2]; HDMVEC, 500-1000 ng/ml) [min] | staining of HUVEC control cells (HUVEC)
1 | B1 | consistent with staining of mouse endothelial cell Tie1 | up to 1 h | 15 to 30 | 50 to 200 | 5 | 
2 | B2 |  |  |  |  |  | stained positively
